The results in this text go back to publication PMC9665036.

The target of assay [1] is SpyCatcher-AP205 capsid virus-like particle (cVLP) (Acinetobacter phage AP205). Kind of assay: covalent SpyTag-SpyCatcher coupling, SDS-PAGE densitometry; SpyTagged sE2 mixed with SpyCatcher-AP205 cVLP at molar ratio 2:1 (antigen per cVLP binding site), 36 h at 4 °C; Coomassie SDS-PAGE, densitometry (ImageQuantTL).
Assay [2] has as its target oligomeric soluble HCV E2 (sE2, Con1 isolate, genotype 1b) with C-terminal 6x His tag and SpyTag, SEC peak 2 (Hepatitis C virus, isolate Con1 (genotype 1b)) (UniProt Q9WMX2). Kind of assay: SEC; analytical SEC of the purified sE2 SEC peak fractions against marker proteins of known size. On the technique in general: Size exclusion chromatography separates by hydrodynamic size, large species first.

Assay [3] has the same target. Nature of the assay: non-reducing SDS-PAGE; SEC peaks of sE2 in SDS-PAGE, Coomassie staining, with or without reducing agent (DTT).

For “monomeric soluble HCV E2 (sE2, Con1 isolate, genotype 1b) with C-terminal 6x His tag and SpyTag, SEC peak 1 (from UniProt Q9WMX2 384-661) (domain or fragment)”, the coupling efficiency in assay [1] was 60%.
Take “oligomeric soluble HCV E2 (sE2, Con1 isolate, genotype 1b) with C-terminal 6x His tag and SpyTag, SEC peak 2 (from UniProt Q9WMX2 384-661) (domain or fragment)”: the results for the stoichiometry N in assay [2] and in assay [3] were 4 and 2, respectively. For the same substance, the coupling efficiency in assay [1] worked out at 60%.

What is called stoichiometry N is a count of units in the complex or per binding partner.
